The record followed here is patent US20110268668A1, “PROCESS FOR NEBULIZING AQUEOUS COMPOSITIONS CONTAINING HIGHLY CONCENTRATED INSULIN” (priority 1997, published 2011).

Data set [1] in a line: Viscosity of aerosol preparation (Ostwald viscosimeter). The data set is classed as physicochemical. As to conditions: aerosol preparation with about 35 mg/mL of insulin, pH 7.4. The protocol: Higher viscosity solutions of macromolecules with a viscosity of up to 1100×10^−6 Pa·s are preferred. With such solutions, an inhalable proportion of droplets containing an active substance of about 60% is obtained. The limiting viscosity numbers given were detected using an Ostwald viscosimeter using the method known from the literature. For comparison, the viscosity of water is 894×10^−6 Pa·s (measured at 25° C.).
The aerosol preparation thus produced has a concentration of about 35 mg/mL of insulin, the viscosity of the solution being about 1020×10^−6 Pa·s.

Data set [2] has as its system blood glucose level. Kind of data set: In vivo test in dog: blood glucose after inhaled highly concentrated insulin solution from RESPIMAT
As to conditions: anesthetized dog; six puffs of highly concentrated insulin solution from RESPIMAT; FIG. 5. As for the experimental part:
The insulin was administered to the dog anesthetized with pentobarbital after previously receiving basic sedation. The animal was intubated and ventilated as before. A total of six puffs of insulin solution were delivered from the RESPIMAT® device. Each puff was administered at the start of an inward breath. Between the breathing in phase and the breathing out phase there was a gap of 5 seconds. Before the next administration of insulin, two breath cycles were left with no intervention. Blood was taken one hour before administration, at the same time as administration and at various times thereafter over […]. The blood glucose level was measured in the fresh blood using the method of Trasch, Koller, and Tritscher (Klein. Chem. 30; 969 [1984]) using a REFLETRON® device made by Boehringer Mannheim.

For data set [3], the system named is neopterin. Kind of data set: In vivo test in dog: serum neopterin after interferon omega by RESPIMAT inhalation vs intravenous. The protocol:
Interferon omega was administered by inhalation and intravenous route in separate experiments on the same dog. The blood levels of interferon were measured immunologically and biologically at different times. In addition, the neopterin level in the blood was measured. Neopterin is a marker for immune activation; it is released by macrophages after interferon stimulation [see Fuchs et al., “Neopterin, Biochemistry and Clinical Use as a Marker For Cellular Immune Reactions”, Int. Arch. Allergy Appl. Immunol. 101: 1-6 (1993)]. Measurement of the neopterin level serves to quantify interferon activity.
The administration of interferon to the dog was carried out under pentobarbital anesthetic after previous basic sedation. The animal was intubated and subjected to artificial ventilation (volume-controlled respiration: volume per minute 4 L/min, rate 10 breaths/min). A total of 20 puffs were delivered by the RESPIMAT® device. Each puff was given at the start of an inward breath. After the breathing in phase there were five seconds gap before breathing out. […] Interferon omega was measured in heparin plasma by immunological methods using an ELISA and by biological methods by the inhibition of the destruction of encephalo-myocarditis virus infected A549 cells. Serum neopterin was determined by immunology. […]

In data set [4] the test system is encephalo-myocarditis virus infected A549 cells. Briefly: In vitro RESPIMAT nebulization, trap recovery of interferon omega by biological assay (inhibiting destruction of virus-infected cells). Format: cell-based. The conditions noted are these: same solutions. The text has this: (§1) The effectiveness of a nebulizer can be tested using an in vitro system in which a protein solution is nebulized and the spray mist is caught in a so-called “trap” (see FIG. 1). The activity of the protein in the aerosol reservoir (a) is compared with its activity in the trapped liquid (b), e.g., by means of an immunoassay or using an assay for the biological effectiveness of the protein. This experiment makes it possible to evaluate the degree of destruction of the protein by the nebulizing process. A second parameter of the aerosol quality is the so-called inhalable proportion, which is defined here as the proportion of the mist droplets with a […] median aerodynamic diameter (MMAD) of less than 5.8 μm. The inhalable proportion can be measured using an “Andersen Impactor”. For good protein absorption it is important not only to achieve nebulization without any substantial loss of activity but also to generate an aerosol with a good inhalable proportion (about 60%). […] The effectiveness of a nebulization device can also be tested in an in vivo system; in this case factors such as susceptibility to lung proteases come into play. […] Blood samples arc taken at suitable time intervals and the protein level in the plasma is then measured by immunological or biological methods.
(§2) The device was activated and a volume of about 12.9 μL, (one puff) was nebulized in an air current of 28 l/min. […] Interferon omega was measured in the reservoir solution and in the solution caught in the trap by immunological methods, using an ELISA, and biologically, by inhibiting the destruction of encephalo-myocarditis virus infected A549 cells. […] However, additional biological measurements are very important as they are a particularly sensitive and therapeutically relevant method of quantifying protein destruction.
(§3) In three experiments, 84%, 77%, and 98%, of the immunologically identifiable interferon, based on the starting solution, were found in the trap solution (b). […] The proportion of particles less than 5.8 μm in size (“inhalable proportion”) was measured. […]

Data set [5] is described as follows: In vitro RESPIMAT nebulization, trap recovery of interferon omega by ELISA.
Description: as §1, §2, §3

Data set [6] is described as follows: Inhalable proportion of RESPIMAT spray mist in Andersen impactor. The data set is classed as physicochemical. As to conditions: immunological measurements.
Description: as §1, §3
In this experiment, the reservoir (a) of the RESPIMAT® device was filled with 3.3 mg/mL of manganese superoxide dismutase (MnSOD) in phosphate-buffered saline (PBS). […] The precise amount nebulized was determined gravimetrically (measurements in three succeeding tests: 12.8, 13.7, and 14.3 mg). […] MnSOD was determined in the reservoir solution and in the solution caught in the trap, immunologically using an ELISA and enzymatically by the reduction in the quantity of superoxide after a xanthine/xanthine oxidase reaction. […]

The nature of data set [7]: In vitro RESPIMAT nebulization, trap recovery of MnSOD by ELISA. As to conditions: 3.3 mg/mL MnSOD in PBS, one puff, 28 L/min, three tests. The text has this:
The effectiveness of a nebulizer can be tested using an in vitro system in which a protein solution is nebulized and the spray mist is caught in a so-called “trap” (see FIG. 1). The activity of the protein in the aerosol reservoir (a) is compared with its activity in the trapped liquid (b), e.g., by means of an immunoassay or using an assay for the biological effectiveness of the protein. This experiment makes it possible to evaluate the degree of destruction of the protein by the nebulizing process. A second parameter of the aerosol quality is the so-called inhalable proportion, which is defined here as the proportion of the mist droplets with a […] median aerodynamic diameter (MMAD) of less than 5.8 μm. The inhalable proportion can be measured using an “Andersen Impactor”. […] Blood samples arc taken at suitable time intervals and the protein level in the plasma is then measured by immunological or biological methods.
In this experiment, the reservoir (a) of the RESPIMAT® device was filled with 3.3 mg/mL of manganese superoxide dismutase (MnSOD) in phosphate-buffered saline (PBS). […] The precise amount nebulized was determined gravimetrically (measurements in three succeeding tests: 12.8, 13.7, and 14.3 mg). […] In three tests, 78%, 89%, and 83% of the immunologically identifiable MnSOD of the nebulized solution were measured in the trapped solution (b). […]
For orientation: An ELISA detects its analyte on a solid surface through an enzyme-linked reagent.

The nature of data set [8]: In vitro RESPIMAT nebulization, MnSOD enzymatic activity (reduction of superoxide after xanthine/xanthine oxidase reaction). Format: biochemical. As to conditions: 3.3 mg/mL MnSOD in PBS. As for the experimental part:
In this experiment, the reservoir (a) of the RESPIMAT® device was filled with 3.3 mg/mL of manganese superoxide dismutase (MnSOD) in phosphate-buffered saline (PBS). The device was operated and a volume of about 13 μL (one puff) was nebulized in an air current of 28 L/min. The precise amount nebulized was determined gravimetrically (measurements in three succeeding tests: 12.8, 13.7, and 14.3 mg). The nebulized solution was caught in a trap (b). This trap contained 20 mL of PBS. In addition, 2 mL of 5% bovine serum albumin was added to stabilize proteins in the trap. MnSOD was determined in the reservoir solution and in the solution caught in the trap, immunologically using an ELISA and enzymatically by the reduction in the quantity of superoxide after a xanthine/xanthine oxidase reaction. In three tests, 78%, 89%, and 83% of the immunologically identifiable MnSOD of the nebulized solution were measured in the trapped solution (b). […] The inhalable proportion (immunological measurements) was 61%.

[9] abbreviates: concentrated interferon omega solution 53 mg/mL, four tests.

Values joined by “and” are separate entries in the source; they are usually repeats but may differ in a detail not shown here. Equal entries are not always repeated.

Take insulin: in data set [1], the “viscosity of the solution” value is listed as “about 1020 ×10^−6 Pa·s”. In addition, the “blood glucose level after administration of insulin by inhalation” value in data set [2] is on record as “lowering of blood glucose level”.

For interferon omega, the “neopterin levels after inhalation compared with intravenous administration of 0.32 mg of interferon” value in data set [3] (20 puffs RESPIMAT, 5 mg/mL (about 1.28 mg) vs 0.32 mg i.v., FIG. 3) was “significantly higher and longer lasting levels”. Moreover, the “serum neopterin level after administration by inhalation” value in data set [3] (20 puffs from RESPIMAT, 5 mg/mL solution (about 1.28 mg)) is “very high serum neopterin level”. The “biologically active interferon in the trapped solution” value in data set [4] (5 mg/mL formulation with additional human serum albumin (0.5%)) was 60% and 54% and 66%. Also, the “recovery of the biologically identifiable interferon in the trapped solution” value is 54% and 47% and 81% in data set [4] (5 mg/mL interferon omega in 50 mM trisodium citrate, 150 mM NaCl, pH 5.5, three experiments); 95% and 98% and 61% and 83% in data set [4] (setting [9]). For the same molecule, the “immunologically identifiable interferon found in the trap solution, based on the starting solution” value in data set [5] (5 mg/mL formulation with additional human serum albumin (0.5%), three tests) is 79% and 83%; in data set [5] (5 mg/mL interferon omega in 50 mM trisodium citrate, 150 mM NaCl, pH 5.5, one puff, air current 28 l/min, ELISA, three experiments), 84% and 77% and 98%. Further, the “immunologically identifiable interferon found in the trapped solution, based on the starting solution” value in data set [5] (setting [9]) was 100% and 60% and 68% and 72%. The “inhalable proportion (particles less than 5.8 μm)” value in data set [6] (5 mg/mL interferon omega solution, Andersen impactor, 28 l/min) was determined as 70%. Further, the inhalable proportion in data set [6] (interferon omega formulation with additional human serum albumin (0.5%)) is given as 67%.

B1: manganese superoxide dismutase (protein, UniProt P04179 25-222, looked up)
Superoxide dismutase [Mn], …: KHSLPDLPYDYGALEPHINAQIMQLHHSKHHAAYVNNLNVTEEKYQEALAKGDVTAQIALQPALKFNGGGHINHSIFWTNLSPNGGGEPKGELLEAIKRDFGSFDKFKEKLTAASVGVQGSGWGWLGFNKERGHLQIAACPNQDPLQGTTGLIPLLGIDVWEHAYYLQYKNVRPDYLKAIWNVINWENVTERYMACKK
notes: 3.3 mg/mL of manganese superoxide dismutase (MnSOD) in phosphate-buffered saline
On to B1, for which, in data set [7], the “immunologically identifiable MnSOD of the nebulized solution measured in the trapped solution” value was 78% and 89% and 83%. Further, in data set [8], the “loss in enzymatic activity after nebulization” value is recorded as “no measurable loss”. The molecule further came in with an inhalable proportion in data set [6] (3.3 mg/mL MnSOD in PBS) of 61%.
